The target in test [1] is human PlGF-1 comprising amino acids 1-137 produced in human embryonic kidney cells (human) (UniProt P49763). Briefly: Format 3 Quantikine ELISA, capture MAb264, detection Pb264; sFlt-1 2300 pmol/L (ratio 75).
Test [2] has as its target recombinant human PlGF-1 (comprising amino acids 1-131) expressed in E. coli (R&D Systems) (human) (UniProt P49763). Briefly: SPR (BIAcore 2000); MAb captured on anti-mouse IgG chip, antigen in solution; 1:1 fit with mass transport. (In general: Surface plasmon resonance follows binding to a sensor surface in real time, without labels.)
In test [3] the target is T1, human PlGF-1 fragment (comprising amino acids 17-131) produced in human embryonic kidney cells (human, UniProt P49763 35-221).
T1 sequence: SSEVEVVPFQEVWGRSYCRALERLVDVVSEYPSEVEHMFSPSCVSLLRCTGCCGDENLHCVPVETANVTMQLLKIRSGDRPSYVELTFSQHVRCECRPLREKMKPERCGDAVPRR
Briefly: … sandwich, capture MAb255, detection MAb826; antigen 1500 pg/mL. Summed up: (§1)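 Values are chemiluminescent relative light units (RLU) from a sandwich immunoassay of human PlGF-1 antigen preparations, some of them recombinant forms made in CHO cells. Antigen levels ran from 0 to 1500 pg/mL. Capture was by a monoclonal anti-human PlGF-1 antibody bound to magnetic microparticles, and detection was by an acridinium ester-labeled monoclonal anti-human PlGF-1 antibody.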

The target in test [4] is T2, CHO human PlGF-1 comprising amino acids 1-137 (human PlGF-1-His (1-131), CHO 6305) (human, UniProt P49763 19-221, N-glycans at N21 (completely glycosylated) and N89 (partially glycosylated)).
T2 construct: Mature human PlGF-1 with 6xHis tag (137 amino acids); also called CHO (1-137)
T2 sequence: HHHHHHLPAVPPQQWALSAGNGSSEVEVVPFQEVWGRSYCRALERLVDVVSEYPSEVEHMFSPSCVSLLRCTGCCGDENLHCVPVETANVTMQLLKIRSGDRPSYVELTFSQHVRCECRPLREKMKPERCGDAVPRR
The description is as above. Summed up: as §1

Test [5] concerns the target T3, CHO human PlGF-1 fragment (comprising amino acids 17-131; ATCC PTA-8540) (human, UniProt P49763 35-221).
T3 sequence: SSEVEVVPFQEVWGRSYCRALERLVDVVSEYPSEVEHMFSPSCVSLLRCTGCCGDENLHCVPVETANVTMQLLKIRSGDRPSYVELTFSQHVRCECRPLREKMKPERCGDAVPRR
The description is as above. Summed up: as §1

Test [6] addresses T4, human PlGF-1 comprising amino acids 1-137 produced in human embryonic kidney cells (human, UniProt P49763 19-221).
T4 construct: Mature human PlGF-1 with 6xHis tag; also called HEK (1-137); full length HEK human PlGF-1 (1-137)
T4 sequence: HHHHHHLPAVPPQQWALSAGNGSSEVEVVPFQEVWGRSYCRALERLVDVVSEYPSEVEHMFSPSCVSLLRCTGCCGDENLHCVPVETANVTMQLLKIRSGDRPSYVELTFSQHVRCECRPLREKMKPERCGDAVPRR
The description is as above. The method, boiled down:
as §1

Test [7] has as its target T1, human PlGF-1 fragment (comprising amino …). Briefly: … sandwich, capture MAb255, detection pAb264; antigen 60 pg/mL.
Test [8] concerns the target T2, CHO human PlGF-1 comprising amino acids …. Described as above.
The target in test [9] is T3, CHO human PlGF-1 fragment (comprising …). The test is described as above.
Test [10] deals with T4, human PlGF-1 comprising amino acids …. The test is described as above.
Test [11] concerns the target T5, CHO-sourced human PlGF-1 (comprising amino acids 1-131; ATCC PTA-8537) (human, UniProt P49763 19-221, glycosylated (CHO-expressed)).
T5 sequence: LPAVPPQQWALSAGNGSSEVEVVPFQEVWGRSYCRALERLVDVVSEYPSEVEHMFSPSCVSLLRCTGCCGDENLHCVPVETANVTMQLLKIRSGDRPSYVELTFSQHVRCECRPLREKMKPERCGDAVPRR
Briefly: SPR (BIAcore 2000); MAb captured on anti-mouse IgG chip, antigen in solution; 1:1 fit with mass transport. As to the method:
(§2) First, a ˜5,500 RU rabbit anti-mouse IgG Capture Biosensor was created by amine-coupling rabbit anti-mouse IgG antibody (BIAcore® International AB, a GE Healthcare company, Uppsala, Sweden) to a CM4 biosensor chip (BIAcore® International AB, a GE Healthcare company, Uppsala, Sweden) via EDC/NHS/Ethanolamine chemistry provided in an Amine Coupling Kit (BIAcore® International AB, a GE Healthcare company, Uppsala, Sweden). Human PlGF-1 monoclonal antibodies and human PlGF-1 antigens were diluted into a running buffer (hereinafter “Running Buffer”) composed of HBS-EP buffer (BIAcore® International AB, a GE Healthcare company, Uppsala, Sweden) spiked with 0.1% BSA and 0.1% CM-Dextran.
(§3) After equilibrating the rabbit anti-mouse IgG Capture Biosensor for 5 minutes at 5 μL/minute with Running Buffer, 5 to 10 μL of human PlGF-1 monoclonal antibody was injected over individual flow cells with one flow cell being left blank as a reference flow cell. The flow cells were washed for 6 minutes at 50 μL/minute with Running Buffer before injecting 150 μL of human PlGF-1 or human PlGF-1 fragment antigen at a […] concentration across the biosensor, which was immediately followed by 15 minutes of Running Buffer. The biosensor was regenerated with one 30 μL injections of 10 mM Glycine pH 1.7 (BIAcore® International AB, a GE Healthcare company, Uppsala, Sweden) at a flow rate of 10 μL/minute.

Test [12] addresses T3, CHO human PlGF-1 fragment (comprising …). The test is described as above. As to the method: as §2, §3

In general, % Inhibition refers to how much of the control response was suppressed. Usually Kd stands for the constant that tells how readily two partners part at equilibrium. The term koff denotes the rate constant with which the complex falls apart. For orientation: kon means the rate constant with which the complex forms.

For “native sFlt-1, isolated from human placental tissue (from UniProt P17948 27-687) (receptor)”, in test [1], the % Inhibition was determined as 75.9% and the PlGF-1 Measured came to 209 pg/mL.

B1: monoclonal antibody 1-255-713 (produced by murine hybridoma cell line 1-255-713, ATCC PTA-8536) (antibody, mouse IgG2a, V domains shown)
VH: QVHLQQSGAELMKPGASVKISCKATGYTFSSYWIEWVKQRPGHGLEWIGEILPGSVSNNFNEKFKDKATLTADPSSNTAYIQVSSLTSEDSAVYYCARSTGFYYGGNYFDHWGQGTTLAVSS
VL: DVVMTQTPLSLPVSPGDQASISCRSSQSLVHSNGHTYLHWYLQKPGQSPKLLIYKVSNRFSGVPDRVSGSGSGTDFTLKISRVEAEDLGVYFCSQSTHVPPTFGGGTKLEIKR
notes: also called MAb255
As to B1, the Kd is 368 pM in test [2], 1700 pM in test [11] and 710 pM in test [12]. Moreover, the dissociation rate constant (koff) worked out at 0.000121 s⁻¹ in [2], 0.000123 s⁻¹ in test [11] and 0.000129 s⁻¹ in test [12]. Also, the on-rate (kon) came out at 329000 M⁻¹ s⁻¹ in [2], 73000 M⁻¹ s⁻¹ in [11] and 182000 M⁻¹ s⁻¹ in test [12]. Further, the RLU in test [3] is 1.04e+06 RLU; in test [4], 734000 RLU; in test [5], 750000 RLU; in [6], 1.52e+06 RLU; in test [7] it was 107000 RLU; in [8] it was 71600 RLU. Moreover, the RLU came out at 81200 RLU in test [9] and 165000 RLU in test [10].

B2: monoclonal antibody 2-826-335 (produced by murine hybridoma cell line 2-826-335, ATCC PTA-8539) (antibody, mouse IgG1, V domains shown)
VH: QVQLKQSGPGLVQPSQSLSITCTVSGFSLTTYGIHWVRQSPGKGLEWLGVMWSGGDTDYDAAFISRLSISKDNSKSQVFFKMNSLQANDTGIYYCARYRFYGMDYWGQGTSVTVSS
VL: AIQMTQSSSSFSVSLGDRVTITCKASEDIYNRFAWYQQKPGNAPRLLISGAASLEAGVPSRFSGSGSGQDYTLSITSLQTEDVATYYCQQYWSTPWTFGGGTKLEIKR
notes: also called MAb826
For the molecule B2, the Kd in [2] turned out to be 92 pM; in test [11], 498 pM; in [12] it was 219 pM. The koff in test [2] came out at 0.000214 s⁻¹; in test [11] it was 0.000325 s⁻¹; in test [12], 0.000291 s⁻¹. For the same molecule, the values for the kon in [2], in test [11] and in test [12] were 2.34e+06 M⁻¹ s⁻¹, 652000 M⁻¹ s⁻¹ and 1.33e+06 M⁻¹ s⁻¹, respectively.

(Values after patent US20100015637A1 (AbbVie / Abbott, published 2010).)
